The text below walks through data of PMC10138348 (2023).

One may read the Kd as the equilibrium constant for the complex coming apart. A higher Kd goes with weaker binding.

Test [1] deals with T1, F4, TNFα-derived peptide with a myristoylated lysine and fluorescein-labelled cysteine in the +2 position (UniProt P01375, myristoyl residue on the lysine side chain; 5-acetamidofluorescein coupled to a cysteine residue at position +2). Put plainly: FP; 3 uM BSA, no NAD+.
The target in test [2] is T1, F4, TNFα-derived peptide with a …. In words: FP; 0.3 uM BSA, no NAD+.
The target is the same in test [3]. In words: FP; 0 uM BSA, no NAD+.

B1: SIRT2 (enzyme)
chain: MAEPDPSHPLETQAGKVQEAQDSDSDSEGGAAGGEADMDFLRNLFSQTLSLGSQKERLLDELTLEGVARYMQSERCRRVICLVGAGISTSAGIPDFRSPSTGLYDNLEKYHLPYPEAIFEISYFKKHPEPFFALAKELYPGQFKPTICHYFMRLLKDKGLLLRCYTQNIDTLERIAGLEQEDLVEAHGTFYTSHCVSASCRHEYPLSWMKEKIFSEVTPKCEDCQSLVKPDIVFFGESLPARFFSCMQSDFLKVDLLLVMGTSLQVQPFASLISKAPLSTPRLLINKEKAGQSDPFLGMIMGLGGGMDFDSKKAYRDVAWLGECDQGCLALAELLGWKKELEDLVRREHASIDAQSGAGVPNPSTSASPKKSPPPAKDEARTTEREKPQ
For the molecule B1, the values for the Kd in test [1], in test [2] and in test [3] were 7 nM, 9.4 nM and 12.3 nM, respectively.
